Patent US20140087995A1 (published 2014)
Numbered stars: 1 amine (or outer) side, 2 acyl side, 3 side chain; on linkers, the order of the positions; unused ones are H or OH. Bridge positions count the residues as written; N and C are the ends. Side chains are listed from the residue outwards. Ends that are not written are not given here. * marks the point of attachment. C20 diacid = O=C(O)CCCCCCCCCCCCCCCCCCC(=O)*; γGlu = O=C(O)[C@H](CCC(=O)[*:2])N[*:1]

T1: human calcitonin receptor (human, UniProt P30988 25-474)
T1 construct: whole, on cells; Membranes of stably transfected cells; also called hCTR; hCT
T1 sequence (looked up): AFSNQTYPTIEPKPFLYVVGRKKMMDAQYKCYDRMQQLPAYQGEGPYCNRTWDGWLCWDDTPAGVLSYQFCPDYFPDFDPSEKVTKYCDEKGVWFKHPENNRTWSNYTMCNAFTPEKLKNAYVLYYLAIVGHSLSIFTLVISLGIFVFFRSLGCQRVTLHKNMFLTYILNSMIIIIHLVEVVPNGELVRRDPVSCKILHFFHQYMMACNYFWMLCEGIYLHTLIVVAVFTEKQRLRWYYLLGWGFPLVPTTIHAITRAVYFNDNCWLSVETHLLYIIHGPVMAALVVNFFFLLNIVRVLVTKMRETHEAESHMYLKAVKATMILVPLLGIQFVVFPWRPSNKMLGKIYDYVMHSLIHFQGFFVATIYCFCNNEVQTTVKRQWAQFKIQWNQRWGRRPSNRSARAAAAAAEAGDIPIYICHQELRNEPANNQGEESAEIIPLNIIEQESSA

T2: rat calcitonin receptor (rat, UniProt P32214 25-516)
T2 construct: whole, on cells; Membranes of transiently transfected BHK tk'ts 13 cells; also called rCTR; rat calcitonin (a) receptor
T2 sequence (looked up): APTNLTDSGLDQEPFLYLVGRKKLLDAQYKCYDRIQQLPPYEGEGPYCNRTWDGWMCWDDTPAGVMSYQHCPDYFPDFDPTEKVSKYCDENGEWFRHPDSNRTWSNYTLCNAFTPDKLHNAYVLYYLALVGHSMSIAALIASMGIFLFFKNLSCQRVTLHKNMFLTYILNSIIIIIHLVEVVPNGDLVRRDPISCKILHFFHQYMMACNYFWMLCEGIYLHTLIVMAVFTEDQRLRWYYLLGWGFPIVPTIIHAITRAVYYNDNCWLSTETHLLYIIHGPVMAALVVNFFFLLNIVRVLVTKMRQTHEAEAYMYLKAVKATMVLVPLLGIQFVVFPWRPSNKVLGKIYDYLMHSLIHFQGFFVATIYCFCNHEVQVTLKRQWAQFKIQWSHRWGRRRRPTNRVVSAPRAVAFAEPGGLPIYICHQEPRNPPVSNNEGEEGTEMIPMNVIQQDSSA

T3: rat amylin receptor (rat calcitonin receptor + rat RAMP 3) (rat, UniProt P32214 25-516; Q9JJ73 23-147)
T3 construct: whole, on cells; Membranes of transiently transfected BHK tk'ts 13 cells; also called rAmylin-R; rat amylin 3(a) receptor
T3 sequence (looked up) 1: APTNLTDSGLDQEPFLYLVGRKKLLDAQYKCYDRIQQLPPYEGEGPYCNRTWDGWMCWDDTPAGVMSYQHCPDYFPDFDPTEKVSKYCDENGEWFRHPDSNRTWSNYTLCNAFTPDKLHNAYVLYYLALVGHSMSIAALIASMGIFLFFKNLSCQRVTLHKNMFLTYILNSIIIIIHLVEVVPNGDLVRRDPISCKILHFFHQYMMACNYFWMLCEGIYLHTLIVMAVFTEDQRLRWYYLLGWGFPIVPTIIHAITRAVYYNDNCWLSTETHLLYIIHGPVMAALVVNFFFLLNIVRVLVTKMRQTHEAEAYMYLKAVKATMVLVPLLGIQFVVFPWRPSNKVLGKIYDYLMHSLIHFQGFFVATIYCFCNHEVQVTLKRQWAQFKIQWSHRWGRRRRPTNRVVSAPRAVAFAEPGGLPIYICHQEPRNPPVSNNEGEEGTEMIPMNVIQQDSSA
T3 sequence (looked up) 2: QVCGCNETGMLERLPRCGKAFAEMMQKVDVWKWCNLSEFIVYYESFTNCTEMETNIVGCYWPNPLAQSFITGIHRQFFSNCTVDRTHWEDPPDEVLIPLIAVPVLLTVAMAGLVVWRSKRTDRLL


Legend:
[1] = target: T1, human calcitonin receptor; assay: ratio of IC50 on human calcitonin receptor to IC50 on human amylin receptor (reference m42), SPA competition
Summary of the method: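 Competition binding by SPA with cell membranes (35 ng/μL) and SPA beads in 50 mM Hepes pH 7.4 with 1 mM CaCl2, 5 mM MgCl2, 0.1% OA and 0.02% Tween20. Incubated 120 min at 25 °C with shaking, then counted.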

rat calcitonin receptor [2] = target: T2, rat calcitonin receptor; assay: ratio of IC50 on rat calcitonin receptor to IC50 on rat amylin receptor (reference m40)
[3] = target: T3, rat amylin receptor (rat calcitonin …); assay: SPA competition with 125I-rat amylin on membranes of BHK tk'ts 13 cells with rat calcitonin receptor + rat RAMP3 (Assay VI)
rat calcitonin receptor [4] = target: T2, rat calcitonin receptor; assay: SPA competition with 125I-calcitonin on membranes of BHK tk'ts 13 cells with rat calcitonin receptor (Assay VIII)

Row | Ratio hCT/hAmylin binding [1] | Ratio rCT/rAmylin binding (rat calcitonin receptor [2]) | IC50 [3] [nM] | IC50 (rat calcitonin receptor [4]) [nM] | Binder
1 | 46.3 | 280 | 0.397 | 111 | K([γGlu-C20 diacid])CNTATCATQRLAAFLRHSSPNFGAIPSSTNVGPNTY-NH2 (disulfide 2-7; N-terminus assumed; SMILES CC[C@H](C)[C@H](NC(=O)[C@H](C)NC(=O)CNC(=O)[C@H](Cc1ccccc1)NC(=O)[C@H](CC(N)=O)NC(=O)[C@@H]1CCCN1C(=O)[C@H](CO)NC(=O)[C@H](CO)NC(=O)[C@H](Cc1c[nH]cn1)NC(=O)[C@H](CCCNC(=N)N)NC(=O)[C@H](CC(C)C)NC(=O)[C@H](Cc1ccccc1)NC(=O)[C@H](C)NC(=O)[C@H](C)NC(=O)[C@H](CC(C)C)NC(=O)[C@H](CCCNC(=N)N)NC(=O)[C@H](CCC(N)=O)NC(=O)[C@@H](NC(=O)[C@H](C)NC(=O)[C@@H]1CSSC[C@H](NC(=O)[C@@H](N)CCCCNC(=O)CC[C@H](NC(=O)CCCCCCCCCCCCCCCCCCC(=O)O)C(=O)O)C(=O)N[C@@H](CC(N)=O)C(=O)N[C@@H]([C@@H](C)O)C(=O)N[C@@H](C)C(=O)N[C@@H]([C@@H](C)O)C(=O)N1)[C@@H](C)O)C(=O)N1CCC[C@H]1C(=O)N[C@@H](CO)C(=O)N[C@@H](CO)C(=O)N[C@H](C(=O)N[C@@H](CC(N)=O)C(=O)N[C@H](C(=O)NCC(=O)N1CCC[C@H]1C(=O)N[C@@H](CC(N)=O)C(=O)N[C@H](C(=O)N[C@@H](Cc1ccc(O)cc1)C(N)=O)[C@@H](C)O)C(C)C)[C@@H](C)O, Synthetic acylated analogue of human amylin; also called compound 94)
2 | 28.5 | 81.1 | 1.06 | 86.1 | K([γGlu-C20 diacid])CNTATCATQRLAEFLRHSSPNFGAIPSSTNVGRETY-NH2 (disulfide 2-7; N-terminus assumed; SMILES CC[C@H](C)[C@H](NC(=O)[C@H](C)NC(=O)CNC(=O)[C@H](Cc1ccccc1)NC(=O)[C@H](CC(N)=O)NC(=O)[C@@H]1CCCN1C(=O)[C@H](CO)NC(=O)[C@H](CO)NC(=O)[C@H](Cc1c[nH]cn1)NC(=O)[C@H](CCCNC(=N)N)NC(=O)[C@H](CC(C)C)NC(=O)[C@H](Cc1ccccc1)NC(=O)[C@H](CCC(=O)O)NC(=O)[C@H](C)NC(=O)[C@H](CC(C)C)NC(=O)[C@H](CCCNC(=N)N)NC(=O)[C@H](CCC(N)=O)NC(=O)[C@@H](NC(=O)[C@H](C)NC(=O)[C@@H]1CSSC[C@H](NC(=O)[C@@H](N)CCCCNC(=O)CC[C@H](NC(=O)CCCCCCCCCCCCCCCCCCC(=O)O)C(=O)O)C(=O)N[C@@H](CC(N)=O)C(=O)N[C@@H]([C@@H](C)O)C(=O)N[C@@H](C)C(=O)N[C@@H]([C@@H](C)O)C(=O)N1)[C@@H](C)O)C(=O)N1CCC[C@H]1C(=O)N[C@@H](CO)C(=O)N[C@@H](CO)C(=O)N[C@H](C(=O)N[C@@H](CC(N)=O)C(=O)N[C@H](C(=O)NCC(=O)N[C@@H](CCCNC(=N)N)C(=O)N[C@@H](CCC(=O)O)C(=O)N[C@H](C(=O)N[C@@H](Cc1ccc(O)cc1)C(N)=O)[C@@H](C)O)C(C)C)[C@@H](C)O, Synthetic acylated analogue of human amylin)
3 | 16.7 | 62 | 0.3 | 18.6 | K([γGlu-C20 diacid])CNTATCATQRLADFLRHSSPNFGAIPSSTNVGPETY-NH2 (disulfide 2-7; N-terminus assumed; SMILES CC[C@H](C)[C@H](NC(=O)[C@H](C)NC(=O)CNC(=O)[C@H](Cc1ccccc1)NC(=O)[C@H](CC(N)=O)NC(=O)[C@@H]1CCCN1C(=O)[C@H](CO)NC(=O)[C@H](CO)NC(=O)[C@H](Cc1c[nH]cn1)NC(=O)[C@H](CCCNC(=N)N)NC(=O)[C@H](CC(C)C)NC(=O)[C@H](Cc1ccccc1)NC(=O)[C@H](CC(=O)O)NC(=O)[C@H](C)NC(=O)[C@H](CC(C)C)NC(=O)[C@H](CCCNC(=N)N)NC(=O)[C@H](CCC(N)=O)NC(=O)[C@@H](NC(=O)[C@H](C)NC(=O)[C@@H]1CSSC[C@H](NC(=O)[C@@H](N)CCCCNC(=O)CC[C@H](NC(=O)CCCCCCCCCCCCCCCCCCC(=O)O)C(=O)O)C(=O)N[C@@H](CC(N)=O)C(=O)N[C@@H]([C@@H](C)O)C(=O)N[C@@H](C)C(=O)N[C@@H]([C@@H](C)O)C(=O)N1)[C@@H](C)O)C(=O)N1CCC[C@H]1C(=O)N[C@@H](CO)C(=O)N[C@@H](CO)C(=O)N[C@H](C(=O)N[C@@H](CC(N)=O)C(=O)N[C@H](C(=O)NCC(=O)N1CCC[C@H]1C(=O)N[C@@H](CCC(=O)O)C(=O)N[C@H](C(=O)N[C@@H](Cc1ccc(O)cc1)C(N)=O)[C@@H](C)O)C(C)C)[C@@H](C)O, Synthetic acylated analogue of human amylin)
4 | 151 | 116 | 0.504 | 58.5 | K([γGlu-C20 diacid])CNTATCATQRLADFLRHSSPNFGAIPSSTNVGPRTY-NH2 (disulfide 2-7; N-terminus assumed; SMILES CC[C@H](C)[C@H](NC(=O)[C@H](C)NC(=O)CNC(=O)[C@H](Cc1ccccc1)NC(=O)[C@H](CC(N)=O)NC(=O)[C@@H]1CCCN1C(=O)[C@H](CO)NC(=O)[C@H](CO)NC(=O)[C@H](Cc1c[nH]cn1)NC(=O)[C@H](CCCNC(=N)N)NC(=O)[C@H](CC(C)C)NC(=O)[C@H](Cc1ccccc1)NC(=O)[C@H](CC(=O)O)NC(=O)[C@H](C)NC(=O)[C@H](CC(C)C)NC(=O)[C@H](CCCNC(=N)N)NC(=O)[C@H](CCC(N)=O)NC(=O)[C@@H](NC(=O)[C@H](C)NC(=O)[C@@H]1CSSC[C@H](NC(=O)[C@@H](N)CCCCNC(=O)CC[C@H](NC(=O)CCCCCCCCCCCCCCCCCCC(=O)O)C(=O)O)C(=O)N[C@@H](CC(N)=O)C(=O)N[C@@H]([C@@H](C)O)C(=O)N[C@@H](C)C(=O)N[C@@H]([C@@H](C)O)C(=O)N1)[C@@H](C)O)C(=O)N1CCC[C@H]1C(=O)N[C@@H](CO)C(=O)N[C@@H](CO)C(=O)N[C@H](C(=O)N[C@@H](CC(N)=O)C(=O)N[C@H](C(=O)NCC(=O)N1CCC[C@H]1C(=O)N[C@@H](CCCNC(=N)N)C(=O)N[C@H](C(=O)N[C@@H](Cc1ccc(O)cc1)C(N)=O)[C@@H](C)O)C(C)C)[C@@H](C)O, Synthetic acylated analogue of human amylin)
5 | 11.1 | 34.6 | 0.958 | 33.1 | K([γGlu-C20 diacid])CNTATCATQRLAEFLRHSSPNFGAIPSSTNVGHETY-NH2 (disulfide 2-7; N-terminus assumed; SMILES CC[C@H](C)[C@H](NC(=O)[C@H](C)NC(=O)CNC(=O)[C@H](Cc1ccccc1)NC(=O)[C@H](CC(N)=O)NC(=O)[C@@H]1CCCN1C(=O)[C@H](CO)NC(=O)[C@H](CO)NC(=O)[C@H](Cc1c[nH]cn1)NC(=O)[C@H](CCCNC(=N)N)NC(=O)[C@H](CC(C)C)NC(=O)[C@H](Cc1ccccc1)NC(=O)[C@H](CCC(=O)O)NC(=O)[C@H](C)NC(=O)[C@H](CC(C)C)NC(=O)[C@H](CCCNC(=N)N)NC(=O)[C@H](CCC(N)=O)NC(=O)[C@@H](NC(=O)[C@H](C)NC(=O)[C@@H]1CSSC[C@H](NC(=O)[C@@H](N)CCCCNC(=O)CC[C@H](NC(=O)CCCCCCCCCCCCCCCCCCC(=O)O)C(=O)O)C(=O)N[C@@H](CC(N)=O)C(=O)N[C@@H]([C@@H](C)O)C(=O)N[C@@H](C)C(=O)N[C@@H]([C@@H](C)O)C(=O)N1)[C@@H](C)O)C(=O)N1CCC[C@H]1C(=O)N[C@@H](CO)C(=O)N[C@@H](CO)C(=O)N[C@H](C(=O)N[C@@H](CC(N)=O)C(=O)N[C@H](C(=O)NCC(=O)N[C@@H](Cc1c[nH]cn1)C(=O)N[C@@H](CCC(=O)O)C(=O)N[C@H](C(=O)N[C@@H](Cc1ccc(O)cc1)C(N)=O)[C@@H](C)O)C(C)C)[C@@H](C)O, Synthetic acylated analogue of human amylin; also called compound 107)
